Measurements: paper PMC8639797 (Nature, 2021)
Residue numbers refer to the chain shown, from its start. In names and notes the source's numbering stands.

How the values were obtained:
AUC = molecular target: the molecule itself; test: AUC
SEC-MALS + AUC = molecular target: the molecule itself; test: SEC-MALS + AUC
[1] = molecular target: ALK-ECR^ABR−4M (T686A/N787A/Q788A/I795A) (human, UniProt Q9UM73 673-1025, T686A | N787A | Q788A | I795A); test: SEC-MALS + AUC
[2] = molecular target: ALK-ECR^ABR (residues 673–1025) (human); test: SEC-MALS

B1: MBP-ALKAL2^C66Y (ligand, human)
chain: AEPREPADGQALLRLVVELVQELRKHHSAEHKGLQLLGRDYALGRAEAAGLGPSPEQRVEIVPRDLRMKDKFLKHLTGPLYFSPKCSKHFHRLYHNTRDCTIPAYYKRCARLLTRLAVSPVCMEDKQ
- Kd (AUC): 38 ± 6 µM

B2: ALK-ECR^ABR–ALKAL2^C66Y 1:1 heterodimeric complex (complex, human)
chain 1: QTPIFDPTVHWLFTTCGASGPHGPTQAQCNNAYQNSNLSVEVGSEGPLKGIQIWKVPATDTYSISGYGAAGGKGGKNTMMRSHGVSVLGIFNLEKDDMLYILVGQQGEDACPSTNQLIQKVCIGENNVIEEEIRVNRSVHEWAGGGGGGGGATYVFKMKDGVPVPLIIAAGGGGRAYGAKTDTFHPERLENNSSVLGLNGNSGAAGGGGGWNDNTSLLWAGKSLQEGATGGHSCPQAMKKWGWETRGGFGGGGGGCSSGGGGGGYIGGNAASNNDPEMDGEDGVSFISPLGILYTPALKVMEGHGEVNIKHYLNCSHCEVDECHMDPESHKVICFCDHGTVLAEDGVSCIVSP
chain 2: B1 chain
- Kd (SEC-MALS + AUC): ~3.2 µM

B3: ALKAL2^2M (full-size ALKAL2^C66Y with I127A/Y130A) (ligand, human, UniProt Q6UX46 26-152, looked up)
chain: B1 chain with I102A, Y105A
- stoichiometry N [1]: 1

B4: ALKAL2^C66Y (full-size, MBP removed) (ligand, human)
chain: B1 chain
- stoichiometry N [2]: 1

B5: ALK ECR^ABR−4M:ALKAL2^2M 1:1 complex (complex, human)
chain 1: B2 chain 1 with T14A, N115A, Q116A, I123A
chain 2: B1 chain with I102A, Y105A
- fold reduction of dimerization to the 2:2 complex against the wild-type complex (SEC-MALS + AUC): 5 fold
